Values of other authors, collected in paper PMC6295873 (Chemical Science, 2018).

What was measured:
[1] = MUC1-based anticancer-vaccines; ref 39 (preceding sentence)

Row | Substance | immunogenicity [1] | half-life in blood [min]
1 | natural MUC1 glycoprotein: densely O-glycosylated human mucin glycoprotein | very low immunogenicity | 
2 | KP10: endogenous neuropeptide acting through its cognate G-protein-coupled receptor, KiSS1R |  | < 1
